Legend:
[1] = biological target: αHGF S3gG (HGF-specific 3-piece Surrobody); test: capture ELISA: anti-VpreB1 IgG (2460B04 IgG1) coated, S3gG diluted without serum; the concentration is that of S3gG
[2] = biological target: αHGF S3gG (HGF-specific 3-piece Surrobody); test: capture ELISA: anti-VpreB1 IgG (2460B04 IgG1) coated, S3gG diluted in 50% mouse serum; the concentration is that of S3gG
[3] = biological target: αHGF S3gG (HGF-specific 3-piece Surrobody); test: capture ELISA: anti-VpreB1 IgG (2460B04 IgG1) coated, S3gG diluted in 50% human or 50% monkey serum; the concentration is that of S3gG
[4] = biological target: αHGF S2gG (HGF-specific 2-piece Surrobody); test: capture ELISA: anti-VpreB1 IgG (2460B04 IgG1) coated, S2gG diluted without serum, detected with HRP-goat anti-E tag antibody; the concentration is that of S2gG
[5] = biological target: αHGF S2gG (HGF-specific 2-piece Surrobody); test: capture ELISA: anti-VpreB1 IgG (2460B04 IgG1) coated, S2gG diluted in 50% mouse serum, detected with HRP-goat anti-E tag antibody; the concentration is that of S2gG
[6] = biological target: αHGF S2gG (HGF-specific 2-piece Surrobody); test: capture ELISA: anti-VpreB1 IgG (2460B04 IgG1) coated, S2gG diluted in 50% human or 50% monkey serum, detected with HRP-goat anti-E tag antibody; the concentration is that of S2gG

- EC50 (read off the curve) [1]: 4 ng/mL
- EC50 (read off the curve) [2]: 20 ng/mL
- EC50 (read off the curve) [3]: 6 ng/mL
- EC50 (read off the curve) [4]: 4 ng/mL
- EC50 (read off the curve) [5]: 20 ng/mL
- EC50 (read off the curve) [6]: 6 ng/mL
B1: anti-human VpreB1 IgG1 (2460B04 IgG1) (antibody, V domains shown)
VH: EVQLVESGGGLVKPGGSLRLSCAASGFTFSNFEMNWVRQAPGKGLEWVSGISSNGRYINYADSVKGRFTISRDNAKNSLYLQMNSLRAEDTAVYYCARVVDFDQDYNGFDYWGQGTLVTVSS
VL: DIQLTQSPSFLSASVGDRVTITCRASQGISTDLNWYQQKPGKAPKLLIYAASNLESGVPSRFSGSGSGTEFTLTISSLQPEDFATYYCQQSYNWPYTFGGGTKVEIK
modifications: Used unlabeled, biotin-, DIG- or HRP-labeled; the letters do not carry the labels.

— patent US20180265594A1
